Assay results taken from patent US20250333486A1, “Anti-HSP90 alpha antibody and uses thereof” (NATIONAL HEALTH RESEARCH INSTITUTES, priority 2021, published 2025).
Entries after “also recorded” stand apart in the source; their conditions may differ.

Assays:
[1] = test system: PANC-1 cells; assay: Cell spheroid-forming assay, rHSP90α-induced PANC-1 spheroids; type: cell-based, human; details: 15 μg/ml rHSP90α plus 10 μg/ml antibody
Procedure: One thousand cancer cells were seeded onto each well of 24-well plates pre-coated with a 4-mm thick layer of 0.5% agarose. After incubation 24 h with serum-free medium at 37° C. plus a 5% CO2 humidified atmosphere, cells were added with PBS or 15 μg/ml of rHSP90α in the absence or presence of 10 μg/ml of control IgG or the tested anti-HSP90α antibody. The incubation was kept for 10-14 days with supplements of some fresh serum-free medium every 3 days. Finally, the cell spheroids characterized by tight, non-adherent, and >100 μm in diameter were photographed and counted under an Olympus IX 71 inverted microscope (Center Valley, PA, USA). The spheroid formation % was calculated by the formula: (number of cell spheroids/1000)×100%.

[2] = Dynamic Light Scattering assay; type: physicochemical
[3] = test system: Panc 02 plus EndoMT cell grafts; assay: Therapeutic efficacy in desmoplastic mouse PDAC transplant model; type: in vivo; details: 5 mg/kg IV, 3 times at 7-day intervals from Day-20
Procedure: (§1) Mouse experiments were performed with the permission of the Institutional Animal Care and Use Committee of National Health Research Institutes (NHRI-IACUC-106031-A, 109022-M2-S02, and 109196-A). To establish a desmoplastic tumor transplant model, C57BL/6 mice at 12 weeks of age were subcutaneously inoculated with a mix of Panc 02 cells and EndoMT-derived CAFs (i.e. OPN-treated 3B-11 cells). See Fan C S, Chen L L, Hsu T A, et al. Endothelial-mesenchymal transition harnesses HSP90α-secreting M2-macrophages to exacerbate pancreatic ductal adenocarcinoma. J Hematol Oncol 2019;12:138; and Chua K V, Fan C S, Chen L L, Chen C C, Hsieh S C, Huang T S. Octyl gallate induces pancreatic ductal adenocarcinoma cell apoptosis and suppresses endothelial-mesenchymal transition-promoted M2-macrophages, HSP90α secretion, and tumor growth. Cells 2020;9(1):91. Sizes of developing tumors were superficially measured with a Vernier caliper, and tumor volumes were calculated with the formula ½×length×width^2. Real tumors were weighed when mice were sacrificed. To establish a desmoplastic tumor transplant model in humanized mice, NOD-SCID IL2R^null (ASID) mice transplanted with human hematopoietic stem cells (hHSC) were subcutaneously inoculated with a mix of PANC-1 cells and OPN-treated HUVECs. The employed hHSC-transplanted ASID mice were produced from the National Laboratory Animal Center (Taipei, Taiwan) and all contained human CD45^+ cell levels more than 38% of total lymphocytes. To establish an M2-macrophage-exacerbated mouse PDAC model, C57BL/6 mice were subcutaneously inoculated with a mix of Panc 02 cells and rHSP90α-treated BMDMs. Additionally, LSL-KrasG12D/Pdx1-Cre transgenic mice were adopted as a spontaneously PDAC-developing mouse model to evaluate the therapeutic efficacy of HH01 antibody. LSL-KrasG12D and Pdx1-Cre breeder mice were obtained from the Mouse Models of Human Cancers Consortium Repository of the National Cancer Institute (Frederick, Maryland, USA). LSL-KrasG12D mice were crossed with Pdx1-Cre mice to generate LSL-KrasG12D/Pdx1-Cre mice.
For assaying the HSP90α-binding activities of the prepared antibodies, 96-well plates were coated with 12.5 ng/ml of rHSP90α in the capture buffer (BioLegend, San Diego, CA, USA) by overnight incubation at 4° C. The coated plates were washed twice with PBST and then blocked with PBST plus 3% bovine serum albumin (BSA). […] The reactions were stopped by the addition of 0.5 M H2SO4, and OD450 values were measured by an Infinite M200 microplate reader (TECAN, Männedorf, Switzerland). Additionally, the immunoglobulin (IgG) isotype characterization of anti-HSP90α antibodies was performed by using the Mouse Ig Isotyping ELISA Ready-Set-Go!™ Kit (eBioscience™, Thermo Fisher Scientific, Waltham, MA, USA). […]

[4] = test system: Panc 02 plus rHSP90α-treated BMDM cell grafts; assay: Therapeutic efficacy in M2-macrophage-exacerbated mouse PDAC model; type: in vivo
Procedure: as §1
For assaying the HSP90α-binding activities of the prepared antibodies, 96-well plates were coated with 12.5 ng/ml of rHSP90α in the capture buffer (BioLegend, San Diego, CA, USA) by overnight incubation at 4° C. The coated plates were washed twice with PBST and then blocked with PBST plus 3% bovine serum albumin (BSA). The prepared antibodies were applied and incubated 2 h at room temperature. After three washes with PBST, horseradish peroxidase-conjugated secondary antibody was added and incubated at 37° C. for another 1 h. After three washes, 0.3 mg/ml of 3,3′,5,5′-tetramethylbenzidine in 0.015% H2O2 was added into each well and incubated in the dark at room temperature for 10 min. The reactions were stopped by the addition of 0.5 M H2SO4, and OD450 values were measured by an Infinite M200 microplate reader (TECAN, Männedorf, Switzerland). Additionally, the immunoglobulin (IgG) isotype characterization of anti-HSP90α antibodies was performed by using the Mouse Ig Isotyping ELISA Ready-Set-Go!™ Kit (eBioscience™, Thermo Fisher Scientific, Waltham, MA, USA). The ELISA protocol was also used to assay the secreted HSP90α levels of mouse serum samples as described previously. See Chen J S, Hsu Y M, Chen C C, Chen L L, Lee C C, Huang T S. Secreted heat shock protein 90α induces colorectal cancer cell invasion through CD91/LRP-1 and NF-κB-mediated integrin αV expression. J Biol Chem 2010;285(33):25458-66.
Mouse tissue sections with a 4-μm thickness were deparaffinized by xylene and rehydrated in graded ethanol dilutions. Antigen retrieval was performed by heating the sections for 15 min in 10 mM of citrate buffer, pH 6.0, under high pressure. The endogenous peroxidase activity was blocked by 0.3% H2O2. Before staining, the sections were blocked 30 min with PBS plus 3% BSA at room temperature in a humidified chamber. […]

[5] = Mouse splenic enlargement; details: in vivo
[6] = Pharmacokinetic assay in male mice; details: IV single dose 10 mg/kg
Text: Food and water were available ad libitum at all times. For determination of the serum exposure levels of HH01 antibody, blood samples were collected at Day-0.04, 0.08, 0.25, 1, 2, 3, 7, 9, 14, 16, 18, 21, 23, 25, 35, 42, 49, 56, and 63 post administration.

[7] = 5 mg/kg from Day-27, second dose after 7 days
[8] = immunohistofluorescent staining of tumor tissues

B1: HH01: humanized anti-HSP90α IgG1 antibody, mutant of Clone-2-chimera; VH SEQ ID NO: 12, VL SEQ ID NO: 17 (antibody, V domains shown)
VH: EVQLVESGGGLVQPGGSLRLSCAASGFTFKTYAMNWVRQAPGQGLEWVARIRSKSRNYATYYADSVKDRFTISRDDSKNQFYLQMNNLRTEDTAVYYCVVGGSGFDYWGQGTTLTVSS
VL: DVVMTQTPLSLPVSLGDQASISCRSSQSIVHSNGNTYLEWYLQKPGQSPQLLIYKVSNRFSGVPDRFSGSGSGTDFTLTISSVEAEDLGVYYCFQGSHVPWTFGGGTKLEIK
modifications: Heavy chain variable region; Light chain variable region
[1]
  suppression of rHSP90α-induced spheroid formation of PANC-1 cells: most outstanding efficacy
[2]
  aggregate formation: did not easily form aggregate; also recorded: not easy to form aggregate
[2]; Dynamic Light Scattering
  size of average diameter: 19.33 nm
  size range: 10-50 nm
[3]
  serum HSP90α levels: significant decreases
  tumor desmoplasia: significant decreases
  tumor growth by weight on Day-41: indeed repressed
  tumor growth kinetics: totally suppressed
[4]; [7]
  elevation of serum HSP90α levels: significantly suppressed
  tumor volume: drastic tumor shrinkage upon HH01 treatment was observed immediately after 3 days
  tumors on Day-42: shrank significantly
[4]; [8]
  CD4^+TNF-α^+ (effective T) cells: both increased
  CD8^+TNF-α^+ (cytotoxic T) cells: both increased
  F4/80^+Arginase1^+ (M2) cells: decrease
  F4/80^+iNOS^+ (M1) cells: increase
[4]; tumor samples
  CD4^+ and CD8^+ cell levels in tumor (immunohistochemistry): effectively restored
  M2-macrophages in tumor (CD163, CD204 immunohistochemistry): M2-macrophage reduction
[5]
  mouse splenic enlargement: will not cause mouse splenic enlargement
[6]
  clearance rate: 4.3 mL/day/kg
  volume in steady state: 80 mL/kg
